By Kd is commonly meant the concentration at which binding is half-saturated.

To fix the notation:
B1: 6× His human Eps15-MD (530–791) [human] / human β2-appendage (700–937) used for ITC [human] (parent complex)
chain 1: STSSSETANLNEHVEGQSNLESEPIHQESPARSSPELLPSGVTDENEVTTAVTEKVCSELDNNRHSKEEDPFNVDSSSLTGPVADTNLDFFQSDPFVGSDPFKDDPFGKIDPFGGDPFKGSDPFASDCFFRQSTDPFATSSTDPFSAANNSSITSVETLKHNDPFAPGGTVVAASDSATDPFASVFGNESFGGGFADFSTLSKVNNEDPFRSATSSSVSNVVITKNVFEETSVKSEDEPPALPPKIGTPTRPCPLPPGKRSI
chain 2: IGMAPGGYVAPKAVWLPAVKAKGLEISGTFTHRQGHIYMEMNFTNKALQHMTDFAIQFNKNSFGVIPSTPLAIHTPLMPNQSIDVSLPLNTLGPVMKMEPLNNLQVAVKNNIDVFYFSCLIPLNVLFVEDGKMERQVFLATWKDIPNENELQFQIKECHLNADTVSSKLQNNNVYTIAKRNVEGQDMLYQSLKLTNGIWILAELRIQPGNPNYTLSLKCRAPEVSQYIYQVYDSILKN
B2: Eps15 P-short peptide [not stated] / human β2-appendage (700–937) used for ITC [human] (parent complex)
chain 1: SFGDGFADFSTL
chain 2: B1 chain 2
B3: β-arrestin P-long peptide [not stated] / human β2-appendage (700–937) used for ITC [human] (parent complex)
chain 1: DDDIVFEDFARQRLKGMKDD
chain 2: B1 chain 2

The variants in one assay derive from B1. Kind of assay: ITC; stoichiometry (1.9). (In general: Isothermal titration calorimetry measures the heat released or taken up as one component is titrated into another.)
With chain 2 IGMAPGGYVAPKAVWLPAVKAKGLEISGTFTHRQGHIYMEMNFTNKALQHMTDFAIQFNKNSFGVIPSTPLAIHTPLMPNQSIDVSLPLNTLGPVMKMEPLNNLQVAVKNNIDVFYFSCLIPLNVLFVEDGKMERQVFLATWKDIPNENELQFQIKECHLNADTVSSKLQNNNVYTIAKRNVEGQDMLVQSLKLTNGIWILAELRIQPGNPNYTLSLKCRAPEVSQYIYQVYDSILKN [chain 2 Y189V], the Kd stood at 11 µM.

The variants in the next assay derive from B2. Kind of assay: ITC.
Consider chain 2 IGMAPGGYVAPKAVWLPAVKAKGLEISGTFTHRQGHIYMEMNFTNKALQHMTDFAIQFNKNSFGVIPSTPLAIHTPLMPNQSIDVSLPLNTLGPVMKMEPLNNLQVAVKNNIDVFYFSCLIPLNVLFVEDGKMERQVFLATWKDIPNENELQFQIKECHLNADTVSSKLQNNNVYTIAKRNVEGQDMLVQSLKLTNGIWILAELRIQPGNPNYTLSLKCRAPEVSQYIYQVYDSILKN [chain 2 Y189V], for which the Kd came out at 59 µM.

Variants of B3 are the subject of another assay. Kind of assay: ITC; stoichiometry (1.2).
Consider chain 2 IGMAPGGYVAPKAVWLPAVKAKGLEISGTFTHRQGHIYMEMNFTNKALQHMTDFAIQFNKNSFGVIPSTPLAIHTPLMPNQSIDVSLPLNTLGPVMKMEPLNNLQVAVKNNIDVFYFSCLIPLNVLFVEDGKMERQVFLATWKDIPNENELQFQIKECHLNADTVSSKLQNNNVYTIAKANVEGQDMLYQSLKLTNGIWILAELRIQPGNPNYTLSLKCRAPEVSQYIYQVYDSILKN [chain 2 R180A], for which the Kd is 0.17 µM.

In the next assay the parent is B3. Nature of the assay: ITC.
With chain 2 IGMAPGGYVAPKAVWLPAVKAKGLEISGTFTHRQGHIYMEMNFTNKALQHMTDFAIQFNKNSFGVIPSTPLAIHTPLMPNQSIDVSLPLNTLGPVMKMEPLNNLQVAVKNNIDVFAFSCLIPLNVLFVEDGKMERQVFLATWKDIPNENELQFQIKECHLNADTVSSKLQNNNVYTIAKRNVEGQDMLYQSLKLTNGIWILAELRIQPGNPNYTLSLKCRAPEVSQYIYQVYDSILKN [chain 2 Y116A], the dissociation constant (Kd) was determined as 1.7 µM.

Source of the values: publication PMC1540706 (2006).
